The results in this text go back to the supplement of paper PMC10567573.

± gives the standard deviation.

This data set in a line: protein stability index of a GFP-peptide fusion (GPS, HEK-293T) (PSI 1-6); higher = more stable. The settings on record: c terminus: a fixed tail appended.
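Note: 24-mer peptide tiles fused after GFP, lentivirally expressed, FACS-sorted into six equal bins by GFP/DsRed ratio, decoded by Illumina sequencing, PSI is the read-weighted mean bin number.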

As to MKRHSSRDAAGKPQRPRSAPRTSS [FCHO1], the protein stability index reads like this: (treatment: DMSO) 4.82 ± 0.28; (treatment: MLN4924 1 uM, 8 h) 4.92 ± 0.34.

With MNEHPVCSRTWTNRLCHQEMGSKK [SPAG8], the protein stability index turned out to be 3.94 ± 0.28 (treatment: DMSO) and 4.09 ± 0.12 (treatment: MLN4924 1 uM, 8 h).

Take MPPLLPLRLCRLWPRNPPSRLLGA [DNAJC4]: the protein stability index is, setting by setting: (treatment: DMSO) 2.29 ± 0.37; (treatment: MLN4924 1 uM, 8 h) 2.15 ± 0.11.

On to MPSSTTQKDSYQPPGNVYWPLRGK [SPAG8], for which the protein stability index is, setting by setting: (treatment: DMSO) 4.21 ± 0.28; (treatment: MLN4924 1 uM, 8 h) 4.22 ± 0.28.

As to MQQSNLDPLSPMTASSLLSFAELF [FEM1C], the protein stability index stood at 2.83 ± 0.29 (treatment: DMSO) and 2.52 ± 0.42 (treatment: MLN4924 1 uM, 8 h).

Sequence MRGFKGDRGPKGEKGEKGDRAGDA [SCARA5] returned a protein stability index (treatment: DMSO) of 5.41 ± 0.25 and a protein stability index (treatment: MLN4924 1 uM, 8 h) of 5.44 ± 0.44.

Turning to MRHLSTGTMTGLAIQYALNIAFSE [MATN2], the protein stability index reads like this: (treatment: DMSO) 3.08 ± 0.49; (treatment: MLN4924 1 uM, 8 h) 3.33 ± 0.25.

MRYEEEGMSYLYASWMYQLQHGDQ [TEX19]: the protein stability index came to 2.3 ± 0.29 (treatment: DMSO) and 2.13 ± 0.17 (treatment: MLN4924 1 uM, 8 h).

With MSLFSLYMVQDQHECILPFVQVKG [M1AP], the protein stability index came out at 2.43 ± 0.54 (treatment: DMSO) and 2.14 ± 0.56 (treatment: MLN4924 1 uM, 8 h).

As for MSYHSGSVFSARDRDPNSLLISCA [TNXB], the protein stability index (treatment: DMSO) came to 2.51 ± 0.2 and the protein stability index (treatment: MLN4924 1 uM, 8 h) worked out at 2.44 ± 0.15.

With MTETDAFYKREMFDPAEKYKMDHR [CASP6], the protein stability index is, setting by setting: (treatment: DMSO) 4.05 ± 0.25; (treatment: MLN4924 1 uM, 8 h) 4.1 ± 0.29.

The sequence MTGRAMDPLPAAAVGAAAEAEADE [SNX8] registered a protein stability index (treatment: DMSO) of 5.52 ± 0.3 and a protein stability index (treatment: MLN4924 1 uM, 8 h) of 5.78 ± 0.12.

With MTTCSRQFTSSSSMKGSCGIGGGI [KRT16], the protein stability index is, setting by setting: (treatment: DMSO) 2.41 ± 0.5; (treatment: MLN4924 1 uM, 8 h) 2.33 ± 0.16.

On to MWDTKTLGLRQHHCRKCGQAVCGK [WDFY1], for which the protein stability index reads like this: (treatment: DMSO) 3.21 ± 0.25; (treatment: MLN4924 1 uM, 8 h) 3.4 ± 0.27.

Turning to MWYPEIKHFCPRAPVILVGCQLDL [RHOBTB2], the protein stability index (treatment: DMSO) came to 3.24 ± 0.81 and the protein stability index (treatment: MLN4924 1 uM, 8 h) is 2.77 ± 0.28.

Regarding NAQIPELKSDLEKASALNTKIRAL [CD207], the protein stability index worked out at 4.016 ± 0.023 (treatment: DMSO) and 3.86 ± 0.48 (treatment: MLN4924 1 uM, 8 h).

Take NCMAEKRETVLIETQLKACASFIR [C8orf76]: the protein stability index stood at 2.23 ± 0.32 (treatment: DMSO) and 2.25 ± 0.45 (treatment: MLN4924 1 uM, 8 h).

With NCTLIISYQKPKEVVVAESELQKE [DPCD], the protein stability index runs as follows: (treatment: DMSO) 2.18 ± 0.19; (treatment: MLN4924 1 uM, 8 h) 2.49 ± 0.2.

Sequence NDDYYEESYFTTRTYGEPESAGPS [EMD] yielded a protein stability index (treatment: DMSO) of 4.84 ± 0.17 and a protein stability index (treatment: MLN4924 1 uM, 8 h) of 4.72 ± 0.17.

NDEIEEVRLQSIHTMRKISNNITL [INTS4]: the protein stability index reads like this: (treatment: DMSO) 3.75 ± 0.23; (treatment: MLN4924 1 uM, 8 h) 3.69 ± 0.18.

For the sequence NEHKSCEEKSVKNTSIRVADFGSA [CLK3], the protein stability index came to 4.89 ± 0.16 (treatment: DMSO) and 5.03 ± 0.14 (treatment: MLN4924 1 uM, 8 h).

Turning to NFIVNDSRKKPIWNVLMWTSLFLG [SOAT1], the protein stability index is, setting by setting: (treatment: DMSO) 2.08 ± 0.14; (treatment: MLN4924 1 uM, 8 h) 2.2 ± 0.45.

Consider NFVHRFPFVAVSIGFAVNKKIEFG [IMPA1], for which the protein stability index is, setting by setting: (treatment: DMSO) 2.91 ± 0.76; (treatment: MLN4924 1 uM, 8 h) 2.77 ± 0.61.

Turning to NGERESGLRSLRLFQKLEENGDLY [WDR41], the protein stability index runs as follows: (treatment: DMSO) 3.29 ± 0.12; (treatment: MLN4924 1 uM, 8 h) 3.52 ± 0.23.

On to NGMNAVMMHGRSYSLASGAGGGGS [RAB40C], for which the protein stability index turned out to be 3.19 ± 0.26 (treatment: DMSO) and 3.34 ± 0.34 (treatment: MLN4924 1 uM, 8 h).

For NGSLYGQASSERLGLDNRLFGHPG [ADAMTSL2], the protein stability index runs as follows: (treatment: DMSO) 3.17 ± 0.53; (treatment: MLN4924 1 uM, 8 h) 3.46 ± 0.25.

For NGSMAMGTVPGQAPRLAVAVPAVT [LYSMD4], the protein stability index stood at 3.77 ± 0.43 (treatment: DMSO) and 4 ± 0.23 (treatment: MLN4924 1 uM, 8 h).

On to NGVRVFPPAMPPPATHLSPALAPV [TRIM9], for which the protein stability index worked out at 3.22 ± 0.28 (treatment: DMSO) and 3.34 ± 0.14 (treatment: MLN4924 1 uM, 8 h).

For NIDIQNGFLLRYAVIKSNHSYCRM [ASB7], the protein stability index is, setting by setting: (treatment: DMSO) 2.57 ± 0.38; (treatment: MLN4924 1 uM, 8 h) 2.54 ± 0.36.

NILEKEVLPPIHAYGNRTECRNPQ [FEM1B]: the protein stability index is, setting by setting: (treatment: DMSO) 4.03 ± 0.079; (treatment: MLN4924 1 uM, 8 h) 4.18 ± 0.11.

In turn, NIPGDVLRAVEQAMGHSQDRLTTF [LRRC45] showed a protein stability index (treatment: DMSO) of 3.09 ± 0.14 and a protein stability index (treatment: MLN4924 1 uM, 8 h) of 3.19 ± 0.078.

For NKPMLADVVFEIQGTTVPAHRAIL [RHOBTB3], the protein stability index runs as follows: (treatment: DMSO) 2.3 ± 0.27; (treatment: MLN4924 1 uM, 8 h) 2.29 ± 0.2.

In turn, NLGRMIDWVPVESLLRPLNSLAAL [ZER1] gave a protein stability index (treatment: DMSO) of 1.72 ± 0.18 and a protein stability index (treatment: MLN4924 1 uM, 8 h) of 2.28 ± 0.66.

Consider NLKFITDPFVCRLRHLSPTPSEEH [OR4A15], for which the protein stability index is 2.54 ± 0.11 (treatment: DMSO) and 3 ± 0.2 (treatment: MLN4924 1 uM, 8 h).

As for NLLDVYSSQGVATPAITVSNSCPA [TFE3], the protein stability index by setting is: (treatment: DMSO) 3.4 ± 0.15; (treatment: MLN4924 1 uM, 8 h) 3.34 ± 0.22.

For the sequence NLRVLVDCILRDTSEDLRLQCDAV [TEKT4], the protein stability index is, setting by setting: (treatment: DMSO) 2.64 ± 0.57; (treatment: MLN4924 1 uM, 8 h) 2.46 ± 0.29.
